{"source": "patent US20260347504", "about": "(published 2026)", "key": {"human RAGE ECD": {"target": "human RAGE ECD (human, UniProt Q15109)", "sequence (Q15109 1-344)": "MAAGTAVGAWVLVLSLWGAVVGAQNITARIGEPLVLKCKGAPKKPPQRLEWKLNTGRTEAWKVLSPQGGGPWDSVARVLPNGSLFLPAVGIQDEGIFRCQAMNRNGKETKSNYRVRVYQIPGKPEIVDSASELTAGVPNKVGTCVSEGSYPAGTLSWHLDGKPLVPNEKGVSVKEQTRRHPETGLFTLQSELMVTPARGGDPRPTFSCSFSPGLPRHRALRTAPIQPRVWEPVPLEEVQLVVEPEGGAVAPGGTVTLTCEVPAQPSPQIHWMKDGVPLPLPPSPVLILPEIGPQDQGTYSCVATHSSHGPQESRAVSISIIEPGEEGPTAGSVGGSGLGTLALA", "assay": "SPR, RAGE immobilized"}, "human TLR4 ECD": {"target": "human TLR4 ECD (human, UniProt O00206)", "sequence (O00206 1-631)": "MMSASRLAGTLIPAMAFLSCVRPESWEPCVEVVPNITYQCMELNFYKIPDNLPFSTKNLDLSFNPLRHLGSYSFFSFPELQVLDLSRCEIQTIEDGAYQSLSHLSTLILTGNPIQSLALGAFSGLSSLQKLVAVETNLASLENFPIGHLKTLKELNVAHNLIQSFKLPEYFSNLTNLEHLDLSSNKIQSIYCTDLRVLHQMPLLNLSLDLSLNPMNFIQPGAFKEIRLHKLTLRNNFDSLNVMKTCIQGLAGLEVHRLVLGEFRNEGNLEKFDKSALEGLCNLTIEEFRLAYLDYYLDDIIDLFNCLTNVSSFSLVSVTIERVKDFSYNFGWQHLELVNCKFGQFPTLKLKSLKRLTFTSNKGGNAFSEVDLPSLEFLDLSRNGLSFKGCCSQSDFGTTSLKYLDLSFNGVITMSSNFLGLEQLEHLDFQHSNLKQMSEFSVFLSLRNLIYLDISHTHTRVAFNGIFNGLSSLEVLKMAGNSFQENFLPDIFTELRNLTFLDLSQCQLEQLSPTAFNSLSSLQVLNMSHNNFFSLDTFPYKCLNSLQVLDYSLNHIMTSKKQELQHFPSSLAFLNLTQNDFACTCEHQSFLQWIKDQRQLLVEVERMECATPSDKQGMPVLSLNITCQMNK", "assay": "SPR, TLR4 immobilized"}}, "data": [{"binder": "human pCTS-L (protein) ATLTFDHSLEAQWTKWKAMHNRLYGMNEEGWRRAVWEKNMKMIELHNQEYREGKHSFTMAMNAFGDMTSEEFRQVMNGFQNRKPRKGKVFQEPLFYEAPRSVDWREKGYVTPVKNQGQCGSCWAFSATGALEGQMFRKTGRLISLSEQNLVDCSGPQGNEGCNGGLMDYAFQYVQDNGGLDSEESYPYEATEESCKYNPKYSVANDTGFVDIPKQEKALMKAVATVGPISVAIDAGHESFLFYKEGIYFEPDCSSEDMDHGVLVVGYGFESTESDNNKYWLVKNSWGEEWGMGGYVKMAKDRRNHCGIASAASYPTV", "values": [{"measurement": "Kd", "setting": "human RAGE ECD", "value": 3, "unit": "nM"}, {"measurement": "Kd", "setting": "human TLR4 ECD", "value": 64.4, "unit": "nM"}]}]}
